We go through 1 molecule from paper PMC4183432, “Evidence of a Bacterial Receptor for Lysozyme: Binding of Lysozyme to the Anti-σ Factor RsiV Controls Activation of the ECF σ Factor σ^V” (PLoS Genetics, 2014).

In this assay the target is T1, GST-RsiV^59–285 (B. subtilis, UniProt O05403 59-285).
T1 construct: plasmid pKBW204 (pDEST15); source: E. coli BL21(DE3), purified (Glutathione HiCap Matrix); not shown: GST, N-terminal, kept
T1 sequence (looked up): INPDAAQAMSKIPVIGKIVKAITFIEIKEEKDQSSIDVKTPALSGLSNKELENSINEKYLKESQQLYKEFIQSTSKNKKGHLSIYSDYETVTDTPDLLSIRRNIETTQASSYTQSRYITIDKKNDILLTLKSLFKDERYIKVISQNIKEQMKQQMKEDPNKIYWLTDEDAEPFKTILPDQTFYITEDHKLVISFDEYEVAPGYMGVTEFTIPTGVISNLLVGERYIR
Nature of the assay: pull-down; 2 mg purified GST-RsiV^59–285 on a Glutathione HiCap Matrix column in PBS-EW; 2 mg of HEW lysozyme, human lysozyme or mutanolysin applied; washed with PBS-EW, eluted with TNGT; SDS-PAGE. The settings on record: both partners purified.

B1: human lysozyme (enzyme, UniProt P61626 19-148, looked up)
chain: KVFERCELARTLKRLGMDGYRGISLANWMCLAKWESGYNTRATNYNAGDRSTDYGIFQINSRYWCNDGKTPGAVNACHLSCSALLQDNIADAVACAKRVVRDPQGIRAWVAWRNRCQNRDVRQYVQGCGV
notes: Human lysozyme, a C-type lysozyme (58% identity to HEW lysozyme); also called HUM lysozyme
For B1, the binding result is reported as “binds”.
